Biological target: AMA1 on P. falciparum 3D7 strain parasites (Plasmodium falciparum)
Assay: cell-based or functional assay

Work on rat mAb 4G2dc1 (antibody) yielded an IC30 concentration (30% inhibition against the 3D7 target parasites, GIA) of 1.8 mg/mL and an Inhibition (GIA at 1 mg/ml against the 3D7 target strain) of 22%.

— patent US20160279221A1
